The target in experiment [1] is E. faecalis RNase J1 (Enterococcus faecalis (strain OG1RF)). Kind of experiment: SPR; Biacore T100; E. faecalis RNase J1 immobilized on a CM5 sensor surface; J2 proteins 400 to 50 nM in duplicate; fitted to the 1:1 binding model. Background: SPR reads the build-up and loss of mass on a sensor chip optically.
The target in experiment [2] is RNase J2 (Bacillus subtilis) (UniProt O31760). To be noted: cited from earlier work.

The text below walks through data of article PMC5383250.

pKd: −log10 of the molar value.

RNase J1, sequence (Q45493 whole entry): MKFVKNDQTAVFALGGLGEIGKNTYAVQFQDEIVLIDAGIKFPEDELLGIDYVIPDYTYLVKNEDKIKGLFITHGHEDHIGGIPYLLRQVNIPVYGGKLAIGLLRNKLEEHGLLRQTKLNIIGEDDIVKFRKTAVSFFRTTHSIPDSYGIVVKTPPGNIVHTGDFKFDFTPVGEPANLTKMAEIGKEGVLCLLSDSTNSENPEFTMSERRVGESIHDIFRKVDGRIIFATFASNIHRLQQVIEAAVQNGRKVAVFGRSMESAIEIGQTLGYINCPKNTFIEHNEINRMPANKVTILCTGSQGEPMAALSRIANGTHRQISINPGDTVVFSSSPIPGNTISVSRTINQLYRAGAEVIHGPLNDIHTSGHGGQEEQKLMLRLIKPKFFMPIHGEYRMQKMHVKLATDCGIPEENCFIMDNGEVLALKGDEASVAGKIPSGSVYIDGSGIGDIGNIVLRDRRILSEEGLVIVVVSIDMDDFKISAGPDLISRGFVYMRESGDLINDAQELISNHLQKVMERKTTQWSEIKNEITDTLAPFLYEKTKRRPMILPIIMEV

In general, pKd refers to the Kd on a negative log10 scale, so that one unit is a factor of ten. As for E. faecalis RNase J2 H69A (enzyme), in experiment [1], the pKd was 7.09.
E. faecalis RNase J2 H71A (enzyme) had a pKd in experiment [1] of 7.05.
Take RNase J1 (from UniProt Q45493): the negative-log Kd (pKd) in experiment [2] is 7.10.
